The target of the experiment is Oslo-2 mAb. The experiment can be described thus: peptide array on cellulose membrane (epitope mapping). Conditions: chain shown with the change; duplicates; parent: est. 12000; read off a plot.
Sequence of Oslo-2 mAb (chain, as listed by the source, chain 1 of 2): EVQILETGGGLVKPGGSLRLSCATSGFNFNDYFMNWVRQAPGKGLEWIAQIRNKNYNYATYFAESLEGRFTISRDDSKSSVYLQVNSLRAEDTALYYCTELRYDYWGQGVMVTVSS
Sequence of Oslo-2 mAb (chain, as listed by the source, chain 2 of 2): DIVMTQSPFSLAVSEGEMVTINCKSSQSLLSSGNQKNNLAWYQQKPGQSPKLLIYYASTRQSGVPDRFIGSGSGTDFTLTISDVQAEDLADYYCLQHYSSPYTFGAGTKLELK

GVKPDLSYMPIWKFPDAAGA [20 mer epitope peptide … (region 603-622 in HER2) E619A; E620A]: the response came out at 1700.

The values above are taken from article PMC9563779.
